From publication PMC4755656, “Interaction Analysis of a Two-Component System Using Nanodiscs” (PLoS ONE, 2016) come the findings set out here.

What all share (details): both partners purified
In experiment [1] the target is T1, NT-647-labelled CpxA-Strep reconstituted in nanodiscs (CpxA-ND), as used for MST (E. coli, UniProt P0AE82 1-457, NT-647 dye (NHS NT-647 labeling kit; typically one primary amine per protein, position statistical)).
T1 construct: CpxA sits in a lipid bilayer ringed by two MSP1D1 molecules (1:1 molar ratio of MSP to CpxA); also called labeled CpxA-Strep in nanodiscs; CpxA-Strep nanodiscs; source: E. coli BL21(DE3) pLysS, from pI1CpxA, purified (Strep-Tactin Superflow); labelled, then reconstituted into nanodiscs; not shown: Strep, C-terminal, kept
T1 sequence (looked up): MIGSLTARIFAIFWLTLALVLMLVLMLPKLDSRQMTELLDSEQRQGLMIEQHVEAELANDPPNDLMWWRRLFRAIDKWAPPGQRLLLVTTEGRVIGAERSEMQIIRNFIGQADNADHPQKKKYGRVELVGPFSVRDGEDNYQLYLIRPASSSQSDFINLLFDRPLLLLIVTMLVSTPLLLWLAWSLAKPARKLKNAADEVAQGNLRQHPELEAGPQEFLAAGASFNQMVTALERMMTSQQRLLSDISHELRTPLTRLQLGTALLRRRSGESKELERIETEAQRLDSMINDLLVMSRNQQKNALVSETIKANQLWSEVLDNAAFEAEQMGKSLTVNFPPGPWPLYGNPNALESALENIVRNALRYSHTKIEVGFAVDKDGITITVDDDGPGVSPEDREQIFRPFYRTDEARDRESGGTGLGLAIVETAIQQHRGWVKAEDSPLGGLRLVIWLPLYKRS
Nature of the experiment: MST; NT-647-labelled CpxA-Strep in nanodiscs (or labelled MSP1D1 in empty nanodiscs) constant at 150 nM; unlabelled CpxR (0.007-237.5 µM) or CpxP (0.01-367.5 µM) titrated; HEPES-buffered saline (20 mM HEPES pH 7.5, 150 mM NaCl), RT; no nucleotide.

The target of experiment [2] is T1, NT-647-labelled CpxA-Strep …. Nature of the experiment: MST; as a3, with ADP and MgCl2 (phosphatase-competent state mimicked).
Experiment [3] has as its target T2, sensor histidine kinase CpxA reconstituted in nanodiscs (CpxA-ND), as used for SPR (E. coli, UniProt P0AE82 1-457).
T2 construct: CpxA sits in a lipid bilayer ringed by two MSP1D1 molecules whose His-tag was removed with TEV protease for SPR; one or two dimers per nanodisc; also called CpxA in nanodiscs; source: E. coli BL21(DE3) pLysS, purified from solubilised membranes; reconstituted into nanodiscs (MSP1D1, E. coli total lipid extract, beta-cyclodextrin)
T2 sequence (looked up): T1 sequence (looked up)
The experiment in a line: SPR; His6-CpxR (50 nM, about 300 RU) captured on an anti-His antibody chip; CpxA-ND or empty ND injected at 25-1000 nM; HBS (10 mM HEPES pH 7.4, 150 mM NaCl), 25 °C; constants from Interaction Map analysis of the sensorgrams. On the technique in general: In SPR one partner is held on a chip, and binding of the other changes the refractive index at the surface.

In experiment [4] the target is T1, NT-647-labelled CpxA-Strep …. The experiment in a line: MST; as a3, CpxA-Strep nanodiscs supplemented with 500 µM ATP and 5 mM MgCl2 before mixing with CpxR.
The target in experiment [5] is T3, phosphorylated CpxA in nanodiscs (CpxA-P-ND) (E. coli, UniProt P0AE82 1-457, phosphorylated (autophosphorylation with ATP and MgCl2); residue number not given).
T3 construct: As m1, phosphorylated; also called phosphorylated CpxA-P-ND; source: E. coli BL21(DE3) pLysS, purified; reconstituted into nanodiscs; phosphorylated by adding ATP and MgCl2 (2 mM Mg2+-ATP present)
T3 sequence (looked up): T1 sequence (looked up)
The experiment in a line: SPR; as a1, but CpxA-P-ND injected in the presence of 2 mM Mg2+-ATP; constants from Interaction Map analysis (peak assigned to phosphorylated CpxA).

The target of experiment [6] is T1, NT-647-labelled CpxA-Strep …. Nature of the experiment: MST; as a3, with the non-hydrolysable ATP analogue AMP-PNP and MgCl2.

A value given as a limit tells only on which side of the number the result lay.

B1: periplasmic accessory protein CpxP, His6-tagged (His6-CpxP) (natural protein, E. coli, UniProt P0AE85 22-166, looked up)
chain: AEVGSGDNWHPGEELTQRSTQSHMFDGISLTEHQRQQMRDLMQQARHEQPPVNVSELETMHRLVTAENFDENAVRAQAEKMANEQIARQVEMAKVRNQMYRLLTPEQQAVLNEKHQQRMEQLRDVTQWQKSSSLKLLSSSNSRSQ
notes: CpxP, periplasmic accessory protein of the Cpx two-component system, E. coli; The introduction says, citing other work, that CpxP acts as a homodimer
As usually defined, the Kd is the free concentration of one partner at which half of the binding sites on the other are occupied at equilibrium, for simple one-to-one binding. B1: the Kd in experiment [1] was over 100000 nM.

B2: response regulator CpxR, His6-tagged (His6-CpxR) (natural protein, E. coli, UniProt P0AE88 1-232, looked up)
chain: MNKILLVDDDRELTSLLKELLEMEGFNVIVAHDGEQALDLLDDSIDLLLLDVMMPKKNGIDTLKALRQTHQTPVIMLTARGSELDRVLGLELGADDYLPKPFNDRELVARIRAILRRSHWSEQQQNNDNGSPTLEVDALVLNPGRQEASFDGQTLELTGTEFTLLYLLAQHLGQVVSREHLSQEVLGKRLTPFDRAIDMHISNLRRKLPDRKDGHPWFKTLRGRGYLMVSAS
notes: CpxR, response regulator of the Cpx two-component system, E. coli; not shown: His6, N-terminal, kept
One may read the koff as the first-order rate constant of dissociation. One may read the kon as the rate constant with which the complex forms. For B2, the equilibrium dissociation constant (Kd) came to 1600 ± 300 nM in experiment [2]; 236 nM in experiment [3]; 550 ± 60 nM in experiment [4]; 24.8 nM in experiment [5]; 3700 ± 500 nM in experiment [1]; 110 ± 20 nM in experiment [6]. Further, the off-rate constant (koff) stood at 0.000473 s⁻¹ in experiment [3] and 4.38e-05 s⁻¹ in experiment [5]. Besides, the results for the kon in experiment [3] and in experiment [5] were 2010 M⁻¹ s⁻¹ and 1760 M⁻¹ s⁻¹, respectively.
